The results in this text go back to patent US20220306744A1 (CRESCENDO BIOLOGICS, published 2022).

Sequences and labels used below:
B1: 1.77b-4GS-1.21a (other)
chain: EVQLVESGGGLVKPGGSLRLSCAASGFTFSDSSMTWMRQAPGKGLEWVSYISSGGGVKFYTDSVKGRFTISRDNAKNSLYLQMNSLRAEDTAVYYCAREAPLRLGESPHDAFDISGQGTMVTVSSGGGGSGGGGSGGGGSGGGGSEVQLVESGGGLVQPGRSLRLSCAASGFTFDDYAMHWVRQAPGKDLEWVSGISWNGGSMGYAASVKGRFTISRDNAKNSLYLQMNSLRAEDTALYYCVREKGPGLTGSTADYYGLDVWGQGTMVTVSS
B2: 1.64b-4GS-1.1a (other)
chain: B1 chain with T61A, E89D, V150L, L156S, Y177H, D189G, G200S, A207D, G211D, N222S
B3: 1.77b-2GS-1.21a (other)
chain: EVQLVESGGGLVKPGGSLRLSCAASGFTFSDSSMTWMRQAPGKGLEWVSYISSGGGVKFYTDSVKGRFTISRDNAKNSLYLQMNSLRAEDTAVYYCAREAPLRLGESPHDAFDISGQGTMVTVSSGGGGSGGGGSEVQLVESGGGLVQPGRSLRLSCAASGFTFDDYAMHWVRQAPGKDLEWVSGISWNGGSMGYAASVKGRFTISRDNAKNSLYLQMNSLRAEDTALYYCVREKGPGLTGSTADYYGLDVWGQGTMVTVSS
B4: 1.1a-4GS-1.57b (other)
chain: EVQLLESGGGSVQPGRSLRLSCAASGFTFDDHAMHWVRQAPGKGLEWVSGISWNSGSMGYADSVKDRFTISRDNAKSSLYLQMNSLRAEDTALYYCVREKGPGLTGSTADYYGLDVWGQGTMVTVSSGGGGSGGGGSGGGGSGGGGSQVQLVESGGGLVKPGGSLRLSCAASGFTFSDNSMTWMRQAPGKGLEWVSYISSGGGVIFYADSVKGRFTISRDNAKNSLYLQMNSLRADDTAVYYCAREAPLRLGESPHDAFDISGQGTMVTVSS
B5: 1.1b-2GS-1.1a (other)
chain: QVQLVESGGGLVKPGGSLRLSCAASGFTFSDYTMTWMRQAPGKGLEWVSYISTGGTIKYYTDSVKGRFTISRDNAKNSLYLQMNSLRADDTAVYYCAREAPLRLGESPHDAFDIWGQGTMVTVSSGGGGSGGGGSEVQLLESGGGSVQPGRSLRLSCAASGFTFDDHAMHWVRQAPGKGLEWVSGISWNSGSMGYADSVKDRFTISRDNAKSSLYLQMNSLRAEDTALYYCVREKGPGLTGSTADYYGLDVWGQGTMVTVSS
notes: Biparatopic VH-linker-VH; His tag implied by the assays; not in the chain
B6: 1.77b-1GS-1.21a (other)
chain: EVQLVESGGGLVKPGGSLRLSCAASGFTFSDSSMTWMRQAPGKGLEWVSYISSGGGVKFYTDSVKGRFTISRDNAKNSLYLQMNSLRAEDTAVYYCAREAPLRLGESPHDAFDISGQGTMVTVSSGGGGSEVQLVESGGGLVQPGRSLRLSCAASGFTFDDYAMHWVRQAPGKDLEWVSGISWNGGSMGYAASVKGRFTISRDNAKNSLYLQMNSLRAEDTALYYCVREKGPGLTGSTADYYGLDVWGQGTMVTVSS
B7: 1.92b-4GS-1.99a (other)
chain: EVQLVESGGGLVKPGGSLRLSCAASGFTFSDESMTWMRQAPGKGLEWVSYISSGGGVKFYADSVKGRFTISRDNAKNSLYLQMNSLRAEDTAVYYCAREAPLRLGESPHDAFDISGQGTMVTVSSGGGGSGGGGSGGGGSGGGGSEVQLVESGGGVVRPGGSLRLSCAASGFTFDDYAMSWVRQAPGKGLEWVSGITWNGGSTGYADSVKGRFTISRDNAKNSLYLQMNSLRAEDTALYYCVRDKYSYAWSYDGFDIWGQGTMVTVSS
B8: 1.92b-4GS-1.103a (other)
chain: B7 chain with G211D, G254D
B9: 1.77b-4GS-1.77b (other)
chain: EVQLVESGGGLVKPGGSLRLSCAASGFTFSDSSMTWMRQAPGKGLEWVSYISSGGGVKFYTDSVKGRFTISRDNAKNSLYLQMNSLRAEDTAVYYCAREAPLRLGESPHDAFDISGQGTMVTVSSGGGGSGGGGSGGGGSGGGGSEVQLVESGGGLVKPGGSLRLSCAASGFTFSDSSMTWMRQAPGKGLEWVSYISSGGGVKFYTDSVKGRFTISRDNAKNSLYLQMNSLRAEDTAVYYCAREAPLRLGESPHDAFDISGQGTMVTVSS
B10: 1.40b (VHH)
VHH: EVQLVESGGGLVKPGGSLRLSCAASGFTFSDSSMSWIRQAPGRGLEWISYISSGGGIIYYTDSVKGRFTISRDNAKNSLYLQMNSLRVEDTAVYYCAKEAPLRLGESPHDAFDIWGHGTMVTVSS
B11: 1.52a (VHH)
VHH: EVQLLESGGGVVRPGGSLRLSCAASGFTFDDYGMSWVRQPPGKGLEWVSGISRNGGSAGYSDSAKDRFTISRDNAKNSLYLQMNSLRADDTAMYYCAREKYSSGWSYDDFDIWGQGTMVTVSS
B12: 1.53a (VHH)
VHH: B11 VHH with E1Q, L5V, P40S
B13: 1.54a (VHH)
VHH: B11 VHH with E1Q, L5V
B14: 1.57a (VHH)
VHH: B11 VHH with E1Q, L5V, P40A, A58T, S61T, D62A, A64V
B15: 1.55a (VHH)
VHH: B11 VHH with L5V
B16: 1.25b (VHH)
VHH: QVTLKESGGGLVKPGGSLRLSCAASGFTFSDYYMSWFRQAPGKEREWISFISSSGSTTYYADSVKGRFTISRDNAKNSLYLQMNSLRAEDTAVYYCAREAPLRLGESPHDAFDFWGQGTMVTVSS
B17: 1.56a (VHH)
VHH: QVQLVESGGGVVRLGGSLRLSCAASGFSFVDYGMSWVRQAPGQGLEWVSGISRNGGSTGYADSVKDRFTISRDNAKNTLYLQMNSLRAEDTALYYCARDPYSSGWSYDSFDIWGQGTMVTVSS
B18: 1.12b (VHH)
VHH: EVQLLESGGGVVKPGGSLRLSCAASGFTFSDYYMGWIRQAPGKGLEWISYISSSGSTIYYADSVKGRFTISRDNAKNSLYLQMNSLRAEDTAVYYCAREAPLRLGESPHDAFDIWGQGTMVTVSS
B19: 1.26b (VHH)
VHH: B18 VHH with E1Q, Q3T, L5K, V11L, Y32N, Y33S, G35S, I48V, S85T, R98K
B20: 1.15b (VHH)
VHH: B18 VHH with E1Q, L5V, V11L, Y32N, Y33S, G35S, I48V, S85T, R98K
B21: 1.24b (VHH)
VHH: QVTLKESGGGLVKPGGSLRLSCAASGFTFSDYDMYWIRQAPGKGLEWVSYISRGGSVTYYADSVKGRFTISRDNAKNALYLQMNSLRAEDMAVYFCATEAPLRLGETPHAAFDIWGQGTMVTVSS
B22: 1.28b (VHH)
VHH: B21 VHH with V2I
B23: 1.33b (VHH)
VHH: B21 VHH with V2I, I37V

Where a chain is given by its changes, count along the chain named.

T1 sequence (Q15116 21-288): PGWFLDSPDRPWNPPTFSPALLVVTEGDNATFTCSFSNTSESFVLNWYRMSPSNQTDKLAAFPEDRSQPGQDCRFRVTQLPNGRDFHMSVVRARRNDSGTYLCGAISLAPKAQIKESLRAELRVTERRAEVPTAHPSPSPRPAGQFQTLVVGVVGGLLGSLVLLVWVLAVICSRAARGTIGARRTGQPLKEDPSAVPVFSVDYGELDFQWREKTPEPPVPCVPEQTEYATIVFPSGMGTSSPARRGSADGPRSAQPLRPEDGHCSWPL
T2 sequence (Q15116 25-167 limits assumed, change not shown): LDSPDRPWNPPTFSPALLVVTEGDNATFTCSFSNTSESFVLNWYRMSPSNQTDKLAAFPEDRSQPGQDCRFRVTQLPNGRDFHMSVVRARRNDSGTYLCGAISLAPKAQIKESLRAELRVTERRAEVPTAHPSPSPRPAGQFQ

The first test addresses T1, human PD-1 expressed on cells (CHO TREX human PD1 cell line, full-length human PD-1 sequence) (human, UniProt Q15116 21-288). The test is described as follows: cell-based or functional assay.
In the case of B1, the “EC50 (M), NFAT-Luciferase reporter gene assay” value was 3.2e-09 M.

For the molecule B2, the “EC50 (M), NFAT-Luciferase reporter gene assay” value was 3e-09 M. Still for that read-out and setting: the same measure for B3: 2.1e-09 M. The same measure, in the same setting: to B4 belongs 3.9e-09 M; to B5, 7.2e-09 M; to B6, 2.3e-09 M. Same read-out and setting: the same measure for B7: 1e-09 M; for B8: 1.2e-09 M.

Another test concerns the target T1, human PD-1 expressed on cells (CHO TREX …). As to the kind of experiment: cell-based or functional assay. This is another data set of the same source.
For B9, the “EC50 uM, PathHunter Checkpoint assay (PD-1 signalling)” value came to 0.0002 µM and the “Max. % increase in response over baseline, PathHunter Checkpoint assay” value worked out at 48.5%. As for B1, the “EC50 uM, PathHunter Checkpoint assay (PD-1 signalling)” value was determined as 0.0005 µM and the “Max. % increase in response over baseline, PathHunter Checkpoint assay” value amounted to 253%. The corresponding values for B6 are 0.00059 µM and 1330%.

A further test shares this target. The test is described as follows: worded summary of the screens.
On to B10, for which the binding result is recorded as “binds”.

In the case of B11, the binding result is recorded as “binds”.

Turning to B12, the binding result is listed as “binds”. On the same count and under the same terms, the same measure for B13: “binds”; for B14: “binds”; for B15: “binds”.

On to B16, for which the binding result is listed as “binds”. On the same count and under the same terms, to B17 belongs “binds”; to B18, “binds”; to B19, “binds”. The same measure, in the same setting: the same measure for B20: “binds”; for B21: “binds”; for B22: “binds”. The same measure, in the same setting: the same measure for B23: “binds”.

Another test concerns the target T2, recombinant human PD-1 Fc chimera (human, UniProt Q15116 25-167).
T2 construct: Bought protein (R&D 1086-PD in the HTRF assay); also called human PD-1-hu Fc; huPD-1Fc; not shown: human Fc
As to the kind of experiment: SPR Biacore T200, single cycle kinetics, human PD-1-hu Fc amine coupled to CM5, 1:1 model. As to the method:
Binding kinetics of certain humabodies binding to human PD-1-hu Fc were measured by surface plasmon resonance (SPR) technology using Biacore T200 instrument (GE Healthcare). Recombinant human PD-1-hu Fc was immobilized by standard amine coupling to CM5 sensors chip (GE Healthcare) using 0.1 mg/ml solution of antigen in 10 mM sodium acetate at pH 5.5. For the reference flow cell, a blank immobilisation was carried out. Single cycle kinetics assays were used to study the interaction, a five point, three-fold dilution series of each Humabody® VH was made with a top concentration of 30 nM. The binding kinetics were followed by flowing the Humabody® VH over the chip surface in HBS EP+ buffer at a flow rate of 30 μl/min. The contact time for each of the association steps was 180 seconds and the dissociation step was varied between 1200-3600 seconds. The data was fitted to a 1:1 binding model after double reference subtraction using the Biacore T200 Evaluation software.
For the molecule B5, the dissociation constant Kd – broadly, the constant that tells how readily two partners part at equilibrium – came out at 0.0346 nM; the koff (commonly the first-order rate constant of dissociation) came to 1.08e-05 s⁻¹; the kon – broadly, a measure of how fast the partners come together – is 313000 M⁻¹ s⁻¹.
